Data on 39 sequences can be found in the supplement of paper PMC7877785.

± gives the uncertainty stated by the source.

The data set can be described thus: self-splicing fitness, log relative to wild type (ln ratio); higher = more splicing; Tetrahymena group I intron in knt gene, E. coli kanamycin selection, DiMSum; sequences stand for … in CUCUCU…GGAGGGAAAAGUUAUCAGGCAUGCACCUGGUAGCUAGUCUUUAAACCAAUAGAUUGCAUCGGUUUAAAAGGCAAGACCGUCAAAUUGCGGGAAAGGGGUCAACAGCCGUUCAGUACCAAGUCUCAGGGGAAACUUUGAGAUGGCCUUGCAAAGGGUAUGGUAAUAAGCUGACGGACAUGGUCCUAACCACGCAGCCAAGUCCUAAGUCAACAGAUCUUCUGUUGAUAUGGAUGCAGUUCACAGACUAAAUGUCGGUCGGGGAAGAUGUAUUCUUCUCAUAAGAUAUAGUCGGACCUCUCCUUAAUGGGAGCUAGCGGAUGAAGUGAUGCAACACUGGAGCCGCUGGGAACUAAUUUGUAUGCGAAAGUAUAUUGAUUAGUUUUGGAGUACUCGUGGUCG
In a few lines: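 Six replicate transformations of E. coli BL21(DE3) with a pET-22b(+) library were grown overnight at 37°C or 30°C. The library randomised all eight P1ex-region intron nucleotides, the intron lying in the knt kanamycin-resistance gene, and plates were LB agar with or without 25 μg/mL kanamycin plus 100 μg/mL carbenicillin, 50 μM IPTG and 0.2% rhamnose. Pooled colonies were amplicon-sequenced on an Illumina HiSeq 2500, and fitness is the DiMSum error-weighted combination of wild-type-normalised replicate fold changes, kanamycin versus none.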

As for GGCCAGCAAUAUUACGGUCG, the “self-splicing fitness (ln)” value (30 °C) is -1.2 ± 0.14 and the “self-splicing fitness (ln)” value (37 °C) came out at 0.113 ± 0.14.
For AUCGAGCAAUAUUACGAGUU, in that order: -2.66 ± 0.23 and -1.31 ± 0.18.
For UAGCAGCAAUAUUACGUUUA, in that order: -1.26 ± 0.067 and -0.291 ± 0.078.
Consider GGUUAGCAAUAUUACGGAGG, for which the “self-splicing fitness (ln)” value is -3.02 ± 0.2 (30 °C) and -2.78 ± 0.18 (37 °C).
For GGGUAGCAAUAUUACGUGUA, in that order: -0.214 ± 0.12 and -0.897 ± 0.14.
For UCAAAGCAAUAUUACGCUGC, in that order: -3.2 ± 0.43 and -2.49 ± 0.33.
For GUAAAGCAAUAUUACGUGAG the same measures were -2.03 ± 0.084 and -0.98 ± 0.1.
As to AACUAGCAAUAUUACGCGGA, the “self-splicing fitness (ln)” value is -2.25 ± 0.1 (30 °C) and -1.18 ± 0.086 (37 °C).
In the case of UGGUAGCAAUAUUACGAAAG, the “self-splicing fitness (ln)” value (30 °C) was -3.06 ± 0.26.
Turning to AGUCAGCAAUAUUACGCUAA, the “self-splicing fitness (ln)” value is -0.794 ± 0.083 (30 °C) and -0.99 ± 0.083 (37 °C).
For GUUGAGCAAUAUUACGCGGG, in that order: -3.17 ± 0.15 and -2.51 ± 0.26.
For UGACAGCAAUAUUACGAGGC the same measures were -2.35 ± 0.23 and -2.95 ± 0.43.
In the case of AUGGAGCAAUAUUACGCCGG, the “self-splicing fitness (ln)” value (30 °C) is -2.78 ± 0.46.
CCGAAGCAAUAUUACGUGUU: the “self-splicing fitness (ln)” value is, setting by setting: (30 °C) -3.93 ± 0.16; (37 °C) -2.89 ± 0.15.
For AUCCAGCAAUAUUACGACCA the same measures were -0.725 ± 0.15 and -0.224 ± 0.17.
For CGCCAGCAAUAUUACGUAGA, in that order: -1.25 ± 0.086 and -1.18 ± 0.13.
Regarding CUUUAGCAAUAUUACGAUUA, under “37 °C”, the “self-splicing fitness (ln)” value is -1.92 ± 0.31.
Regarding AUGCAGCAAUAUUACGAGGA, the “self-splicing fitness (ln)” value runs as follows: (30 °C) -3.57 ± 0.28; (37 °C) -2.9 ± 0.21.
For UGGCAGCAAUAUUACGCACC the same measures were -2.36 ± 0.22 and -1.37 ± 0.25.
For the sequence ACUAAGCAAUAUUACGAACA, the “self-splicing fitness (ln)” value by setting is: (30 °C) -1.86 ± 0.18; (37 °C) -0.417 ± 0.19.
For GGAAAGCAAUAUUACGGCGA the same measures were -0.475 ± 0.1 and -0.211 ± 0.089.
For UUACAGCAAUAUUACGUAUU the same measures were -2.89 ± 0.14 and -1.55 ± 0.12.
As for UUGCAGCAAUAUUACGGGUC, the “self-splicing fitness (ln)” value runs as follows: (30 °C) -2.73 ± 0.21; (37 °C) -1.7 ± 0.22.
As to AGUCAGCAAUAUUACGGGGU, the “self-splicing fitness (ln)” value is -4.54 ± 0.31 (30 °C) and -1.5 ± 0.15 (37 °C).
For CCUAAGCAAUAUUACGUUUC the same measures were -2.52 ± 0.2 and -2.97 ± 0.27.
As to AACAAGCAAUAUUACGGUGC, the “self-splicing fitness (ln)” value is, setting by setting: (30 °C) -3.67 ± 0.16; (37 °C) -2.04 ± 0.12.
For UGAAAGCAAUAUUACGCCCG the same measures were -0.527 ± 0.15 and -0.0303 ± 0.21.
As to AGUAAGCAAUAUUACGGUAA, the “self-splicing fitness (ln)” value is, setting by setting: (30 °C) -2.63 ± 0.28; (37 °C) -1.68 ± 0.15.
For GUAGAGCAAUAUUACGGCGU, in that order: -0.532 ± 0.077 and 0.0227 ± 0.088.
For GGAAAGCAAUAUUACGGAUG, in that order: -2.54 ± 0.17 and -2.18 ± 0.21.
As for AUCGAGCAAUAUUACGACGG, the “self-splicing fitness (ln)” value (30 °C) was -3.75 ± 0.44 and the “self-splicing fitness (ln)” value (37 °C) is -1.7 ± 0.33.
For UCUCAGCAAUAUUACGCCGC the same measures were -2.99 ± 0.34 and -1.52 ± 0.36.
For GCCAAGCAAUAUUACGGUAU, in that order: -1.62 ± 0.069 and 0.416 ± 0.076.
For ACCUAGCAAUAUUACGCAGG, in that order: -3.34 ± 0.23 and -2.73 ± 0.26.
Consider UUUUAGCAAUAUUACGGACC, for which the “self-splicing fitness (ln)” value (30 °C) is -2.44 ± 0.4 and the “self-splicing fitness (ln)” value (37 °C) was -0.175 ± 0.33.
For UAGAAGCAAUAUUACGGAUA the same measures were -1.18 ± 0.1 and -0.43 ± 0.11.
Turning to GUAUAGCAAUAUUACGCGGU, the “self-splicing fitness (ln)” value (37 °C) was -2.53 ± 0.44.
On to UCCUAGCAAUAUUACGUAAA, for which the “self-splicing fitness (ln)” value runs as follows: (30 °C) -1.84 ± 0.19; (37 °C) 0.0696 ± 0.22.
For CACGAGCAAUAUUACGGUUU the same measures were -3.79 ± 0.33 and -2.93 ± 0.36.
